Consider two molecules from paper PMC3836179 (Nature chemical biology, 2013).

One assay has as its target T1, Doc (UniProt Q06259 1-126).
T1 sequence: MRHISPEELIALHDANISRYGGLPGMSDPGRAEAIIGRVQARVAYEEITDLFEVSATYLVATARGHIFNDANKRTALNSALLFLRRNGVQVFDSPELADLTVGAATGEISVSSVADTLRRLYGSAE
The assay is described as follows: ITC.

In assay [1] the target is T2, Doc (wild type), toxin of the doc/phd toxin/antitoxin module (UniProt Q06259 1-126).
T2 sequence: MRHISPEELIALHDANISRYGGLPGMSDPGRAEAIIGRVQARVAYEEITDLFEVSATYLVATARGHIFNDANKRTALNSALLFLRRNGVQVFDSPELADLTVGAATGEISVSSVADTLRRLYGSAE
The assay is described as follows: ITC.

B1: Phd^52-73 (domain or fragment)
chain: LDAEFASLFDTLDSTNKELVNR
As for B1, in the assay with Doc, the binding result was “binds”.

B2: antitoxin domain of Phd (residues 52-73) (peptide)
chain: LDAEFASLFDTLDSTNKELVNR
For B2, the binding result in assay [1] is “binds”.
